Laboratory results as given in patent publication US6323001A, “Increasing the trehalose content of organisms by transforming them with combinations of the structural genes for trehalose synthase” (BTG International Ltd., priority 1994, dated 2001).

System: phosphoglucoisomerase (PGI) activity
Assay: PGI activity of TPS activator
Assay type: biochemical, S. cerevisiae
Settings: 50 mM HEPES/KOH pH 7.0, 5 mM MgCl2, 5 mM F6P; stored several months at 0° C.
Description: The PGI activity of a sample of TPS activator that had been stored for several months at 0° C. was measured in 50 mM HEPES/KOH pH 7.0, 5 mM MgCl2, 5 mM F6P and 0.4 mg/ml NADP. A specific activity of 190 U/mg was found.

B1: TPS activator: TPS activator from S. cerevisiae, identical to yeast phosphoglucoisomerase (protein, UniProt P12709 2-554, looked up)
Glucose-6-phosphate isomerase: SNNSFTNFKLATELPAWSKLQKIYESQGKTLSVKQEFQKDAKRFEKLNKTFTNYDGSKILFDYSKNLVNDEIIAALIELAKEANVTGLRDAMFKGEHINSTEDRAVYHVALRNRANKPMYVDGVNVAPEVDSVLKHMKEFSEQVRSGEWKGYTGKKITDVVNIGIGGSDLGPVMVTEALKHYAGVLDVHFVSNIDGTHIAETLKVVDPETTLFLIASKTFTTAETITNANTAKNWFLSKTGNDPSHIAKHFAALSTNETEVAKFGIDTKNMFGFESWVGGRYSVWSAIGLSVALYIGYDNFEAFLKGAEAVDNHFTQTPLEDNIPLLGGLLSVWYNNFFGAQTHLVAPFDQYLHRFPAYLQQLSMESNGKSVTRGNVFTDYSTGSILFGEPATNAQHSFFQLVHQGTKLIPSDFILAAQSHNPIENKLHQKMLASNFFAQAEALMVGKDEEQVKAEGATGGLVPHKVFSGNRPTTSILAQKITPATLGALIAYYEHVTFTEGAIWNINSFDQWGVELGKVLAKVIGKELDNSSTISTHDASTNGLINQFKEWM
Q: Which PGI specific activity does the source give for B1 here?
A: The PGI specific activity was 190 U/mg.
